According to PMC3828167 (PLoS Pathogens, 2013):

Biological target: Legionella pneumophila RalF Sec7 domain (LpRalF^Sec7, residues 1-201) (Legionella pneumophila, UniProt Q8RT31 1-201)
Assay: SEC
Conditions: both partners purified

B1: Human Arf1 lacking its N-terminal alpha-helix (Δ17Arf1) (domain or fragment)
chain: not shown
notes: also called Arf1-GDP; nucleotide-free Arf1
binding result: binds
